Reference: PMC3285688, “Active Site Mutations Change the Cleavage Specificity of Neprilysin” (PLoS ONE, 2012)
Several values for one entry are separate records, joined by “and”; a condition that tells them apart may be missing. Identical values can stand only once. Entries after “also recorded” stand apart in the source; their conditions may differ.

Assays:
Type in all cases: biochemical
[1] = test system: leu-ENK and insulin B chain; assay: Dual substrate assay: substrate preference leu-ENK versus insulin B chain
Description: (§1) The rate of cleavage of a substrate mixture is determined by both the kcat for that substrate as well by the affinity for the substrate. […] This is expected, given that each peptide acts as a competitive inhibitor of the other. […] That is the ratio for leu-ENK/insulin B chain cleavage is 3 for NEP^S546E compared to 6 for wild-type NEP.
(§2) Cleavage of physiological peptides was measured via reverse phase high performance liquid chromatography (HPLC) following incubation of the purified NEP or its mutants with 15 µM insulin B chain (Sigma Aldrich), 24 µM Aß1–40 (Anaspec), or 64 µM leu-ENK (Sigma) in 100 µL of 20 mM MES, pH 6.5, at 37°C. Reactions were run in triplicate. HPLC was carried out in a Vydac C4 column using a linear gradient from 0.1% trifluoroacetic acid (TFA) in 95% water, 5% acetonitrile to 0.1% TFA in 50% acetonitrile/water at a flow rate of 1 mL/min. Peptides and hydrolysis products were detected at 214 nm and quantified by measuring peak areas. Peptides obtained from HPLC were analyzed on an Applied Biosystems 4800 MALDI TOF/TOF Proteomics Analyzer at the University of Kentucky Proteomics core. This facility is supported in part by grant P20RR020171 from the NIH/NCRR.

leu-ENK [2] = assay: Dual substrate assay: leu-ENK hydrolysis in presence of insulin B chain; details: 15 µM insulin B chain and 64 µM leu-ENK together, 37°C, 20 mM MES buffer, pH 6.5
Description: as §1, §2

Aß1–40 [3] = assay: Time course of product peak accumulation from Aß1–40
Description: Similar to the analysis conducted with insulin B chain, the linear rate of product accumulation was determined for each peak and normalized to the amount of protein in the reaction, Table 7 . Unlike the hydrolysis of insulin B chain, the hydrolysis of Aß1–40, even at the earliest time points, produced products resulting from multiple cleavage events. Out of the 12 identified product peaks, only 3 could be produced by a single cleavage. Rates for all cleavages were calculated and are given in Figure 4, B–D , but only the three putative primary cleavage sites can be compared.
as §2

[4] = Hydrolysis of synthetic substrate Glut-Ala-Ala-Phe-MNA by NEP and mutants (fluorogenic)
Description: Reactions of 400 µl contained 100 µM Glut-Ala-Ala-Phe-MNA, 1 µg of aminopeptidase and 15 to 100 ng of NEP or mutant NEP depending on their activity in 20 mM MES buffer, pH 6.5. Activity was monitored with a Spectra Max Gemini XS plate reader using an excitation wavelength of 340 nm and an emission wavelength of 425 nm.
(§3) Kinetic constants for NEP and its mutants were obtained using the assay conditions noted above, but with Glut-Ala-Ala-Phe-MNA varied from 20 to 500 µM. Typically 12 data points were obtained. The data were fit to the Michaelis-Menten equation using Prism4 software. The Ki for insulin B chain was obtained by measuring the rate of Glut-Ala-Ala-Phe-MNA hydrolysis in the presence of varying concentrations of insulin B chain from 1 to 40 µM. Data were fit to a Dixon plot (1/rate versus [insulin B chain]) using Prism4 software and the ID50 obtained as the –x intercept, where ID50 corresponds to the concentration of insulin producing 50% inhibition. The actual Ki was obtained from the equation: ID50 = Ki (1+ [Glut-Ala-Ala-Phe-MNA]/KmGlut-Ala-Ala-Phe-MNA), [33].

Aß1–40 [5] = assay: Rate of Aß1–40 hydrolysis (HPLC)
Description: as §2
(§4) Statistical analysis comparing wild-type NEP and its mutants was performed with Prism 4 software using a two-tailed paired t-test with a 95% confidence interval.

insulin B chain [6] = assay: Insulin B chain as alternate substrate (competitive) inhibitor of Glut-Ala-Ala-Phe-MNA hydrolysis (Dixon plot); details: insulin B chain 1 to 40 µM as competitive inhibitor of Glut-Ala-Ala-Phe-MNA hydrolysis by the enzyme form, 37°C, 20 mM MES, pH 6.5, ID50 converted to Ki
Description: as §3

leu-ENK [7] = assay: Rate of leu-ENK hydrolysis (HPLC)
Description: as §2, §4

insulin B chain [8] = assay: Dual substrate assay: insulin B chain hydrolysis in presence of leu-ENK; details: 15 µM insulin B chain and 64 µM leu-ENK together, 37°C, 20 mM MES buffer, pH 6.5
Description: as §1, §2

insulin B chain [9] = assay: Rate of insulin B chain hydrolysis (HPLC)
Description: as §2, §4

insulin B chain [10] = assay: Time course of product peak accumulation from insulin B chain
From the text: As a representative of the NEP^F563 and NEP^S546 mutants, we compared the cleavage profile of NEP^F563L and NEP^S546E to that of NEP using time course experiments, Figure 2 . By adjusting the amount of NEP mutant used, the rate of hydrolysis of insulin B chain by all NEP forms was virtually identical. […] Since rates were based on peak areas measured at 214 nm, which in turn is dependent on both the number of peptide bonds and the number of aromatic residues within a given peptide, only the observed rates of change for a particular peptide product can be compared between enzyme forms. A comparison of the rate of change of different peaks within the same enzyme form or between enzyme forms is not valid under our conditions of analysis.
as §2

[11] = 24 µM Aß1–40, 37°C, 20 mM MES, pH 6.5, 0-360 min, HPLC peak area, linear phase
[12] = 15 µM insulin B chain, 37°C, 20 mM MES, pH 6.5, 0-180 min, HPLC peak area 214 nm, linear phase

Activity relative to wild-type enzyme (Figure S2 legend, in words) [4]: same activity as wild-type enzyme
Ki (insulin B chain [6]): 1500 ± 300 nM
B1: NEP^F563L: neprilysin active site mutant, Phe563 to leucine (protein, UniProt P08473 2-750, looked up, variant F563L)
Neprilysin: GKSESQMDITDINTPKPKKKQRWTPLEISLSVLVLLLTIIAVTMIALYATYDDGICKSSDCIKSAARLIQNMDATTEPCTDFFKYACGGWLKRNVIPETSSRYGNFDILRDELEVVLKDVLQEPKTEDIVAVQKAKALYRSCINESAIDSRGGEPLLKLLPDIYGWPVATENWEQKYGASWTAEKAIAQLNSKYGKKVLINLFVGTDDKNSVNHVIHIDQPRLGLPSRDYYECTGIYKEACTAYVDFMISVARLIRQEERLPIDENQLALEMNKVMELEKEIANATAKPEDRNDPMLLYNKMTLAQIQNNFSLEINGKPFSWLNFTNEIMSTVNISITNEEDVVVYAPEYLTKLKPILTKYSARDLQNLMSWRFIMDLVSSLSRTYKESRNAFRKALYGTTSETATWRRCANYVNGNMENAVGRLYVEAAFAGESKHVVEDLIAQIREVFIQTLDDLTWMDAETKKRAEEKALAIKERIGYPDDIVSNDNKLNNEYLELNYKEDEYFENIIQNLKFSQSKQLKKLREKVDKDEWISGAAVVNAFYSSGRNQIVFPAGILQPPLFSAQQSNSLNYGGIGMVIGHEITHGFDDNGRNFNKDGDLVDWWTQQSASNFKEQSQCMVYQYGNFSWDLAGGQHLNGINTLGENIADNGGLGQAYRAYQNYIKKNGEEKLLPGLDLNHKQLFFLNFAQVWCGTYRPEYAVNSIKTDVHSPGNFRIIGTLQNSAEFSEAFHCRKNSYMNPEKKCRVW
Substrate preference leu-ENK/insulin B chain (in words) ([1]; dual substrate assay, versus wild-type): no change in overall substrate preference
Ratio leu-ENK insulin B chain ([1]; ratio of rates, 15 µM insulin B chain and 64 µM leu-ENK together): 5.1
leu-ENK hydrolysis rate, dual substrate assay (leu-ENK [2]): 0.97 ± 0.06 pmol/min/ng
leu-ENK hydrolysis, activity relative to the uninhibited value (leu-ENK [2]; numbers in parenthesis): 0.62
Accumulation rate of peak Aß 1–9 (single cleavage G^9-Y^10) (Aß1–40 [3]; [11]): 0 Δarea/min/ng
Accumulation rate of peak Aß 1–16 (single cleavage K^16-L^17) (Aß1–40 [3]; [11]): 17 Δarea/min/ng
Accumulation rate of peak Aß 1–17 (single cleavage L^17-V^18) (Aß1–40 [3]; [11]): 22 Δarea/min/ng
Accumulation rate of peak Aß 4–9 (dual cleavages A^3-F^4, G^9-Y^10) (Aß1–40 [3]; [11]): 5 Δarea/min/ng
Accumulation rate of peak Aß 4–16 (dual cleavages A^3-F^4, K^16-L^17) (Aß1–40 [3]; [11]): 5 Δarea/min/ng
Accumulation rate of peak Aß 4–17 (dual cleavages A^3-F^4, L^17-V^18) (Aß1–40 [3]; [11]): 12 Δarea/min/ng
Accumulation rate of peak Aß 10–16 (dual cleavages G^9-Y^10, K^16-L^17) (Aß1–40 [3]; [11]): 11 Δarea/min/ng
Accumulation rate of peak Aß 10–17 (dual cleavages G^9-Y^10, L^17-V^18) (Aß1–40 [3]; [11]): 8 Δarea/min/ng
Accumulation rate of peak Aß 12–17 (dual cleavages E^11-V^12, L^17-V^18) (Aß1–40 [3]; [11]): 1 Δarea/min/ng
Accumulation rate of peak Aß 20–28 (dual cleavages F^19-F^20, K^28-G^29) (Aß1–40 [3]; [11]): 5 Δarea/min/ng
Accumulation rate of peak Aß 20–29 (dual cleavages F^19-F^20, G^29-A^30) (Aß1–40 [3]; [11]): 6 Δarea/min/ng
Accumulation rate of peak Aß 20–30 (dual cleavages F^19-F^20, A^30-I^31) (Aß1–40 [3]; [11]): 26 Δarea/min/ng
Presence of wild-type product peaks from Aß1–40 (in words) (Aß1–40 [3]; HPLC profile at ∼30% hydrolysis, Aß1–9 peak in case of NEP^F563L): the peak corresponding to Aß1–9 was not present
Cleavage at L^17-V^18 in Aß1–40 relative to wild-type NEP (Aß1–40 [3]; product Aß1–17): 25%
Cleavage of the G^9-Y^10 bond in Aß1–40 (in words) (Aß1–40 [3]; versus NEP, inferred from Aß1–9, Aß10–17): much slower rate; also recorded: appears to cleave the G^9-Y^10 bond
Specific Activity (Glut-Ala-Ala-Phe-MNA cleavage) ([4]; 100 µM Glut-Ala-Ala-Phe-MNA, 37°C, 20 mM MES buffer, pH 6.5, fluorescence ex 340 nm, em 425 nm): 44 pmol/min/ng and 43.6 ± 0.1 pmol/min/ng
Km ([4]; Glut-Ala-Ala-Phe-MNA 20 to 500 µM, 37°C, 20 mM MES buffer, pH 6.5, Michaelis-Menten fit): 81 ± 11 µM
Rate of hydrolysis of Aß1–40 (Aß1–40 [5]; 24 µM Aß1–40, 37°C, 20 mM MES buffer, pH 6.5, disappearance of substrate by HPLC, at least triplicate): 116 ± 4 fmol/min/ng
Aß1–40 hydrolysis rate relative to wild-type NEP (Aß1–40 [5]; overall rate as fraction/times of wild-type rate, 24 µM Aß1–40): nearly half the rate of the wild-type enzyme
Rate of hydrolysis of leu-ENK (leu-ENK [7]; 64 µM leu-ENK, 37°C, 20 mM MES buffer, pH 6.5, disappearance of substrate by HPLC, at least triplicate): 1.57 ± 0.32 pmol/min/ng
leu-ENK cleavage rate relative to wild-type NEP rate (leu-ENK [7]; 64 µM leu-ENK, pH 6.5, 37°C): approximately 80%
Activity for both Glut-Ala-Ala-Phe-MNA and leu-ENK (in words) (leu-ENK [7]; versus wild-type): near wild-type levels of activity
Insulin B Chain hydrolysis rate, dual substrate assay (insulin B chain [8]): 0.19 ± 0.03 pmol/min/ng
Rate of hydrolysis of Insulin B Chain (insulin B chain [9]; 15 µM insulin B chain, 37°C, 20 mM MES buffer, pH 6.5, disappearance of substrate by HPLC, at least triplicate): 1.17 ± 0.18 pmol/min/ng
Insulin B chain hydrolysis rate relative to NEP (insulin B chain [9]; overall rate, 15 µM insulin B chain): 1.4 times
Preference for insulin B chain over Aß1–40 (insulin B chain [9]; relative to NEP, from separate single-substrate rates): greater than 2 fold
Rate of accumulation of peak 1–5 (single cleavage H^5-L^6) (insulin B chain [10]; [12]): 83 Δarea/min/ng
Rate of accumulation of peak 1–10 (single cleavage H^10-L^11) (insulin B chain [10]; [12]): 135 Δarea/min/ng
Rate of accumulation of peak 1–11 (single cleavage L^11-V^12) (insulin B chain [10]; [12]): 16 Δarea/min/ng
Rate of accumulation of peak 1–14 (single cleavage A^14-L^15) (insulin B chain [10]; [12]): 266 Δarea/min/ng
Rate of accumulation of peak 1–16 (single cleavage Y^16-L^17) (insulin B chain [10]; [12]): 25 Δarea/min/ng
Rate of accumulation of peak 15–23 (two cleavages A^14-L^15, G^23-F^24) (insulin B chain [10]; [12]): 64 Δarea/min/ng
Rate of accumulation of peak 15–30 (single cleavage A^14-L^15) (insulin B chain [10]; [12]): 282 Δarea/min/ng
Rate of accumulation of peak 17–24 (two cleavages Y^16-L^17, F^24-F^25) (insulin B chain [10]; [12]): 25 Δarea/min/ng
Rate of accumulation of peak 17–30 (single cleavage Y^16-L^17) (insulin B chain [10]; [12]): 112 Δarea/min/ng
Rate of accumulation of peak 24–30 (single cleavage G^23-F^24) (insulin B chain [10]; [12]): 290 Δarea/min/ng
Unique or missing cleavage sites in insulin B chain versus NEP (insulin B chain [10]; 30% substrate hydrolysis, HPLC profile): no unique or missing cleavage sites
Cleavage at A^14-L^15 in insulin B chain relative to NEP (insulin B chain [10]; times the NEP rate): ~1.4
Cleavage at H^5-L^6 in insulin B chain relative to NEP (insulin B chain [10]; times the NEP rate): ~1.4
Cleavage at H^10-L^11 in insulin B chain relative to NEP (insulin B chain [10]; times the NEP rate): 0.8
Cleavage at L^11-V^12 in insulin B chain relative to NEP (insulin B chain [10]; times the NEP rate): 0.2
Cleavage at Y^16-L^17 in insulin B chain relative to NEP (insulin B chain [10]; times the NEP rate): ~0.7
